{
  "source": "paper PMC2954335",
  "molecular_target": "ecCTLA-4 (Escherichia coli-expressed monomeric form of CTLA-4, extracellular region vl-Ig 1-124, cysteine 122 mutated to serine) (UniProt P16410)",
  "test": "SEC; monomeric ecCTLA-4 concentrated to 10 mg/ml, incubated 24 h at room temperature, then analytical size-exclusion chromatography with calibration curve; monomer to strand-swapped dimer and larger species",
  "data": [
    {"substance": "ecCTLA-4 (Escherichia coli-expressed monomeric form of CTLA-4, extracellular region vl-Ig 1-124, cysteine 122 mutated to serine) (from UniProt P16410 36-159) (domain or fragment)", "values": [
      {"measurement": "stoichiometry N", "result": "> 2"}
    ]}
  ]
}
